Assay results as given in publication PMC10002499.

Key:
[1] = target: dysferlin canonical C2A domain, construct 3 (aa 19-134) (Rattus norvegicus); assay: SPR; Biacore 3000, 25 °C; His6 fusion ligand amine-coupled on a CM5 chip (dysferlin C2 domain as ligand, partner as analyte, per Figure 2 'ligand:analyte'); analyte typically 0–320 nM, including reversal of ligand and analyte; 1:1 Langmuir model; Ca2+ level of the KD values of Table 1 not given
[2] = target: dysferlin C2F domain (Rattus norvegicus); assay: as above
dysferlin C2F domain (Rattus norvegicus), sequence (Q9ESD7 1805-1953): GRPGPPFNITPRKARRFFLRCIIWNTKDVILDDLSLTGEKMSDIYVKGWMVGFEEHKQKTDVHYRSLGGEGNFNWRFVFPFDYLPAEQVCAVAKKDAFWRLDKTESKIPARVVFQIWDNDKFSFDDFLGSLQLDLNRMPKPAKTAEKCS

[3] = target: annexin A2 (amino terminus) construct (rat); assay: SPR; 100 uM Ca2+; settings: domain or fragment
annexin A2 (amino terminus) construct (rat), sequence (Q07936 2-339): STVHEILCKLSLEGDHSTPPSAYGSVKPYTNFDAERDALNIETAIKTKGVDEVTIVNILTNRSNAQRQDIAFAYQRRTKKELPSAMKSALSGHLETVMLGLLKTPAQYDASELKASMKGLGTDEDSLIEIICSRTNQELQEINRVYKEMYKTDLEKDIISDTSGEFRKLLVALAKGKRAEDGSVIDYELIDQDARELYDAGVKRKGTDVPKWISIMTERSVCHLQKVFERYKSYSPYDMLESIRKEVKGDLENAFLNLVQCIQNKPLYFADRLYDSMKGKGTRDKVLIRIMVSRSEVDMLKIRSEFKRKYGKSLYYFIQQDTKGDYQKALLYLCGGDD

[4] = target: annexin A2 (amino terminus) construct (rat); assay: SPR; without Ca2+; settings: domain or fragment
[5] = target: annexin A2 (amino terminus) construct (rat); assay: SPR; 0 added Ca2+; settings: domain or fragment

dysferlin canonical C2A domain, construct 3 (aa 19-134) (Rattus norvegicus), sequence (Q9ESD7 other isoform, or with tags, fused parts or gaps): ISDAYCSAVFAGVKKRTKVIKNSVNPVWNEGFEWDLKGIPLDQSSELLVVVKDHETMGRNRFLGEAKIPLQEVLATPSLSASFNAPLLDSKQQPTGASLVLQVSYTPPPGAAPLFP
annexin A1 construct (domain or fragment), sequence (P07150 2-346): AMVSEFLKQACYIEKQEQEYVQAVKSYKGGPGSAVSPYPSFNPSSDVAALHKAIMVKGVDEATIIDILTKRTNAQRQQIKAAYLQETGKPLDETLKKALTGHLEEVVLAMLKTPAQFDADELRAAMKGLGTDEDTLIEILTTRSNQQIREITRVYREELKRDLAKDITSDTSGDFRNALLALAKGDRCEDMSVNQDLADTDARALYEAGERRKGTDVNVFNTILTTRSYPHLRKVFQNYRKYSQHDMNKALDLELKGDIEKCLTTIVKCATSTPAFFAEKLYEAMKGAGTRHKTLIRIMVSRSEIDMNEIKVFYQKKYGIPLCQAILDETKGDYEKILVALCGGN
calpain-3 construct (domain or fragment), sequence (P16259 whole entry, the tested form may be a part): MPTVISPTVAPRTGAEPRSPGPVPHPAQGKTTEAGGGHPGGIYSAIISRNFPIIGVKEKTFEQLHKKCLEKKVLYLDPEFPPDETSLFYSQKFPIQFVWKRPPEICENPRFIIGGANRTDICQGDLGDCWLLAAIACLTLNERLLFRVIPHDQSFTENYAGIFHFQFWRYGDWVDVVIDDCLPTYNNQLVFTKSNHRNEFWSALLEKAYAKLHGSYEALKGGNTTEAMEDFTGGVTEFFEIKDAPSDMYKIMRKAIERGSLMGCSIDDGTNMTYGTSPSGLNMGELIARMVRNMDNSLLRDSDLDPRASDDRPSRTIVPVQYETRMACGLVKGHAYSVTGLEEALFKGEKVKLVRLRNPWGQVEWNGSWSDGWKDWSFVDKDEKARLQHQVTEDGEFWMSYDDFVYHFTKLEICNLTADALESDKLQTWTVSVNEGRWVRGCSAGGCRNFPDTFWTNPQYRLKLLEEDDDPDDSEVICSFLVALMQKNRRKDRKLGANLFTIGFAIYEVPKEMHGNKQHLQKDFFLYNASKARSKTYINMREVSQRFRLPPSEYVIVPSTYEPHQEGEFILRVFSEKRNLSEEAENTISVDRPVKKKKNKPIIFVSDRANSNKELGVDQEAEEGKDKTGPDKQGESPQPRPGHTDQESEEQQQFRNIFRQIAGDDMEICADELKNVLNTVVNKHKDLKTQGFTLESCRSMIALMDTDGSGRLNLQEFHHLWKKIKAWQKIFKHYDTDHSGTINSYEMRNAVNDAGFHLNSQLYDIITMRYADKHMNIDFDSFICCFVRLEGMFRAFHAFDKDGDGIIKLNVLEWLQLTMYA
syntaxin-4 construct (domain or fragment), sequence (Q08850 whole entry, the tested form may be a part): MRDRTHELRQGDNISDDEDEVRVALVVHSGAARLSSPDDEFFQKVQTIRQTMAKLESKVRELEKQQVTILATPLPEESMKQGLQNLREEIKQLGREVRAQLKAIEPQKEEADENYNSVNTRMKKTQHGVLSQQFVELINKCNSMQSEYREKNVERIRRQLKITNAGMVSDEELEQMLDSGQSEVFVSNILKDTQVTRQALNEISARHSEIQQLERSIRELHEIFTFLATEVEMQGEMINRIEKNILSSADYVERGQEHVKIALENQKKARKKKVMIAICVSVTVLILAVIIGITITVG
caveolin-3 construct (domain or fragment), sequence (P51638 whole entry, the tested form may be a part): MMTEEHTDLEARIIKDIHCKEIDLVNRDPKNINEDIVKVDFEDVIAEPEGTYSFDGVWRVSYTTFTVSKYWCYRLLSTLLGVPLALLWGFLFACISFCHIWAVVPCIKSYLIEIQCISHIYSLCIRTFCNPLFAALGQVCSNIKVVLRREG
mitsugumin-53 construct (domain or fragment), sequence (A0JPQ4 whole entry, the tested form may be a part): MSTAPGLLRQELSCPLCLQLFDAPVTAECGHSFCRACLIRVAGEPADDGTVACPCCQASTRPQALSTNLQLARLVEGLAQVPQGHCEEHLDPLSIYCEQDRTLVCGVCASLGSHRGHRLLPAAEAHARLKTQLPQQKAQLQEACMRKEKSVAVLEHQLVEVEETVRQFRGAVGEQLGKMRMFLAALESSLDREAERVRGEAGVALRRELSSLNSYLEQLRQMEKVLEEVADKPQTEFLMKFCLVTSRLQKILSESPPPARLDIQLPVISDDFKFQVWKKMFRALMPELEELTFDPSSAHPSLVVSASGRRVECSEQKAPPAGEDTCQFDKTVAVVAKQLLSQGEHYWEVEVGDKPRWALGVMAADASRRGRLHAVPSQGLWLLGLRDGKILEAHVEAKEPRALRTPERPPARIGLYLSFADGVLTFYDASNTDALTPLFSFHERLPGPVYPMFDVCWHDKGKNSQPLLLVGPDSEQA

Substance | Kd [1] | Kd [2] | other results
AHNAK1 construct, the final 500 amino acids (domain or fragment) | 380 nM |  | 
calpain-3 construct (domain or fragment) | 1200 nM | 2.2 nM | 
caveolin-3 construct (domain or fragment) | 33 nM | 110 nM | 
dysferlin canonical C2A domain, construct 1 (aa 1-152 plus 24 aa) |  |  | Kd [3]: 23.6 nM; Kd [4]: 101 nM
dysferlin canonical C2A domain, construct 3 (aa 19-134) |  |  | Kd [5]: 190 nM
mitsugumin-53 construct (domain or fragment) | 470 nM |  | 

Continued, in another order:

Kd [1] | Kd [2] | Substance | other results
41000 nM | 400 nM | affixin (beta-parvin) construct (domain or fragment) | 
25 nM | 330 nM | annexin A1 construct (domain or fragment) | 
4400 nM | 130 nM | syntaxin-4 construct (domain or fragment) | 
